Data set [1] deals with C. crescentus DriD (wild type) (C. crescentus). As to the kind of experiment: fluorescence polarisation; DriD (WT or mutant) first bound to fluoresceinated target DNA with 100 μM ssDNA, then increasing αCTD titrated in; 25 mM Tris-HCl pH 7.5, 150 mM NaCl, 2.5 % glycerol; apparent Kd; three technical replicates. A general note: Fluorescence polarisation rises when a labelled molecule tumbles more slowly, as on binding a larger partner.

Data set [2] relates to DriD WT (Caulobacter crescentus). As to the kind of experiment: fluorescence polarization. The settings on record: FP: 25 mM Tris-HCl pH 7.5, 150 mM NaCl, 2.5% glycerol, 100 uM ssDNA, temperature not stated; cryo-EM: 20 mM Tris-HCl pH 8, 5 mM MgCl2, 100 mM NaCl, 1 mM bME ….
In data set [3] the test system is DriD(G18K-A20K) (Caulobacter crescentus). As to the kind of experiment: fluorescence polarization. To be noted: FP: 25 mM Tris-HCl pH 7.5, 150 mM NaCl, 2.5% glycerol, 100 uM ssDNA, temperature not stated; cryo-EM: 20 mM Tris-HCl pH 8, 5 mM MgCl2, 100 mM NaCl, 1 mM bME ….

The record followed here is paper PMC12340889.

Consider “C. crescentus α subunit CTD (α residues 161–248) (domain or fragment)”, for which the Kd in data set [1] was found to be 30000 nM. Consider “ATACGACAGTAACTGTCGTAT (double strand) [F-DriD target DNA]”, for which the Kd in data set [2] is 7.1 nM; in data set [3], 9.2 nM.
